Measurements published in patent US9725518B2, “Antibodies that bind to Jagged 1” (Cancer Research Technology Limited, priority 2013, dated 2017).
Changes are numbered by the printed parent chain.

B1: J1-183D chimeric: chimeric antibody with unaltered CDRs: J1-183D_VL + J1-183D_VH (antibody, V domains shown)
VH: QVQLQQPGTELVRPGVSVKISCKVSGYAFTDYAIHWIMQSHAKSLEWIGIINTYYGDSKYNQKFKDKATMTVDKSSNTAYMELARLTSEDSAIYYCARGYDGFAYWGQGTLVTVSS
VL: DIQLTQSPASLSASVGETVTFTCRTSENIYSYLTWYQQKQGKSPQLLVYNAKILAAGVPSRFSGYGSGTQFSLKINSLQPEDFGTYYCQHHYDIPWTFGGGTKLEIK
B2: J1-183D variant 2: humanised/de-immunised J1-183D: J1-183D_VL_1 + J1-183D_VH_2 (antibody, V domains shown)
VH: QVQLVQSGAELKKPGASVKVSCKVSGYAFTDYAIHWIRQAPGQGLEWMGIINTYYGDSKYAQKFQGRVTMTVDTSTSTAYMELSSLRSEDTAVYYCARGYDGFAYWGQGTLVTVSSASTKGP
VL: DIQMTQSPSSLSASVGDRVTITCRTSENIYSYLTWYQQKPGKAPKLLVYNAKILAAGVPSRFSGSGSGTDFTLTISSLQPEDFATYYCQHHYDIPWTFGGGTKLEIKRT
B3: J1-65D variant 1: humanised/de-immunised J1-65D: J1-65D_VL_1 + J1-65D_VH_1 (antibody, V domains shown)
VH: QVQLVQSGAELKKPGSSVKVSCKASGYTFTDYEMHWVRQAPGQGLEWMGAIQPGGGGTAYNQKFKGRVTLTADKSTSTAYMELSSLRSEDTAVYYCTRRGYDDYPFAYWGQGTLVTVSSASTKGP
VL: DIQMTQSPSSLSASVGDRVTITCRASGNIHNYLAWYQQKPGKAPKLLIYNAKTLADDVPSRFSGSGSGTDYTLTISSLQPEDFATYYCQHFWSAPWTFGGGTKLEIKRT
B4: J1-65D variant 7: humanised/de-immunised J1-65D: J1-65D_VL_2 + J1-65D_VH_3 (antibody, V domains shown)
VH: B3 VH with L11V, N61A, K65Q
VL: B3 VL with D57A
B5: J1-65D variant 2: humanised/de-immunised J1-65D: J1-65D_VL_1 + J1-65D_VH_2 (antibody, V domains shown)
VH: B3 VH with N61A
VL: B3 VL
B6: J1-65D variant 6: humanised/de-immunised J1-65D: J1-65D_VL_2 + J1-65D_VH_2 (antibody, V domains shown)
VH: B3 VH with N61A
VL: B3 VL with D57A
B7: J1-65D variant 3: humanised/de-immunised J1-65D: J1-65D_VL_1 + J1-65D_VH_3 (antibody, V domains shown)
VH: B3 VH with L11V, N61A, K65Q
VL: B3 VL
B8: J1-65D variant 11: humanised/de-immunised J1-65D: J1-65D_VL_3 + J1-65D_VH_3 (antibody, V domains shown)
VH: B3 VH with L11V, N61A, K65Q
VL: B3 VL with D57A, G100Q
B9: J1-65D variant 10: humanised/de-immunised J1-65D: J1-65D_VL_3 + J1-65D_VH_2 (antibody, V domains shown)
VH: B3 VH with N61A
VL: B3 VL with D57A, G100Q
B10: J1-65D variant 16: humanised/de-immunised J1-65D: J1-65D_VL_4 + J1-65D_VH_4 (antibody, V domains shown)
VH: QVQLVQSGAEVKKPGSSVKVSCKASGYTFTDYEMHWVRQAPGQGLEWMGAIQPGGGGTAYAQKFQGRVTITADKSTSTAYMELSSLRSEDTAVYYCTRRGYDDYPFAYWGQGTLVTVSS
VL: DIQMTQSPSSLSASVGDRVTITCRASQGIHNYLAWYQQKPGKAPKLLIYNAKTLADAVPSRFSGSGSGTDYTLTISSLQPEDFATYYCQQFWSAPWTFGQGTKLEIK
B11: J1-65D variant 14: humanised/de-immunised J1-65D: J1-65D_VL_4 + J1-65D_VH_2 (antibody, V domains shown)
VH: B10 VH with V11L, Q65K, I70L
VL: B10 VL
B12: J1-65D variant 15: humanised/de-immunised J1-65D: J1-65D_VL_4 + J1-65D_VH_3 (antibody, V domains shown)
VH: B10 VH with I70L
VL: B10 VL
B13: J1-65D variant 13: humanised/de-immunised J1-65D: J1-65D_VL_4 + J1-65D_VH_1 (antibody, V domains shown)
VH: B10 VH with V11L, A61N, Q65K, I70L
VL: B10 VL

biological target: T1, N1 binding to cell surface expressed hJ1 (Homo sapiens, UniProt P78504); test: Notch binding blocking assay (FACS): N1 EGF11-13 beads staining human J1-expressing cells; set-up: key: +: Complete blocking; X: No blocking; conditions: final antibody concentration 0.2 μg/ml
T1 construct: cell expressed full length human J1 (hJ1; HEK293 transfectants); expressed in transfected cells; host or cells: HEK293
T1 sequence (P78504 34-1218): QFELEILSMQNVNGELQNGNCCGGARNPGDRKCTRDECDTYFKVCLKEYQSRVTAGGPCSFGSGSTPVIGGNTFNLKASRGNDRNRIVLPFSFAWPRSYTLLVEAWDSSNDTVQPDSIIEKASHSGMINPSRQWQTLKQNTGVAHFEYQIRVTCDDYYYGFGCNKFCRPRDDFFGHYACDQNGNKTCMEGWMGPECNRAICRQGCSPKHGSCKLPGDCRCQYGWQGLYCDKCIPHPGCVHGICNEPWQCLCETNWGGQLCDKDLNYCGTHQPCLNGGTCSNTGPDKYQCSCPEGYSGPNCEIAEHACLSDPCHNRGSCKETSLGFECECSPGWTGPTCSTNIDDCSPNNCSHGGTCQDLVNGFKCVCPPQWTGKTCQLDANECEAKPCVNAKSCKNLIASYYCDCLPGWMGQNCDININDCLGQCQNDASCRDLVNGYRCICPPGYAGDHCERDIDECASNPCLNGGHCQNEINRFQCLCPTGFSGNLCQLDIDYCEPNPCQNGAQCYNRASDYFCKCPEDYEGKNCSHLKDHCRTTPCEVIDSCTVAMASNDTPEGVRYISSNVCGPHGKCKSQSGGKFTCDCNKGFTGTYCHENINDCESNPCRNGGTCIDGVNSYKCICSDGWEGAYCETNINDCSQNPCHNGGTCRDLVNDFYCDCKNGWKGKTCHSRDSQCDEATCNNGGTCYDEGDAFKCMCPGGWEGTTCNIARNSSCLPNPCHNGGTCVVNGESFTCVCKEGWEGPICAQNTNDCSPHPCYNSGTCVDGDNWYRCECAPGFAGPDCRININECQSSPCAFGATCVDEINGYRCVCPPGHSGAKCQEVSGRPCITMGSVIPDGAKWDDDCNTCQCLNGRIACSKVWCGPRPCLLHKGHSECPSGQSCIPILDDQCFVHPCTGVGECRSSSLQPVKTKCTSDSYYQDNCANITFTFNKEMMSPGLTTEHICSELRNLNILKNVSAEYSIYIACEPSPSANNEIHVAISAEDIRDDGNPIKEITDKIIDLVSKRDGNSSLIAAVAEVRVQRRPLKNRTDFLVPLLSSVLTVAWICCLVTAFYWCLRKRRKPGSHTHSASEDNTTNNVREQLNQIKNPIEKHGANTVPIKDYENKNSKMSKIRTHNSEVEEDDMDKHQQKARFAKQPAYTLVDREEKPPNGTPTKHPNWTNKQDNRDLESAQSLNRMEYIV
Protocol: To functionally identify mAbs with the capacity to disrupt the J1-N1 protein:protein interaction, hybridoma culture supernatants were tested in a FACS-based binding assay. Biotinylated soluble human N1 EGF11-13 recombinant protein was bound to avidin-coated beads and used to stain J1-expressing cells in the presence or absence of each mAb that recognised cell surface hJ1 by FACS. […] The four blocking antibodies of the invention were also able to block the binding of recombinant […] to a biotin-tagged J1 DSL-EGF3 recombinant protein in an ELISA assay (FIG. 1B). […] The four blocking mAbs of the invention were purified from serum-free culture supernatants and equal concentrations of purified antibodies were used to compare their activity in subsequent assays (unless hybridoma supernatant was specified). Sequence conservation across the DSL domain raised the possibility that the J1 mAbs may also be able to bind the Jagged 2 (J2) protein. Antibody binding specificity was initially tested by immunocytochemical labelling of cytospin samples of hJ1 and hJ2 transfectants (FIG. 2). All antibodies stained J1 transfectants but none stained the J2 transfected cells, and J2 expression in the same experiment was confirmed using a commercial anti-J2 antibody. The specificity of the purified mAbs was further investigated in mammalian cells transfected with hJ2, human Delta-like ligand 4 (hDLL4), or mJ1 (FIG. 3). Transfectants were FACS stained with 10 μg/ml of each of the four blocking mAbs.
To test the blocking efficiencies of the J1 mAbs, purified mAbs were titrated to determine the concentration required to block recombinant N1 binding to cell surface expressed hJ1. Beads coated with a bacterially-expressed N1 EGF11-13 protein were used to stain the hJ1-expressing cells in the presence of various concentrations of mAbs.
The FACS-based binding assay using biotinylated soluble human N1 EGF11-13 recombinant protein bound to avidin-coated fluorescent beads to stain J1-expressing cells was performed using a dilution series of each variant mAb to test their ability to block J1 binding to N1 by FACS (Table 7). […] Thus 12/16 J1-65D1 variants V1-12 and all J1-183D variants have the desired binding and blocking activity.
Human N1 EGF11-13 (411-526) was expressed in E. coli, refolded in vitro and labelled with purple fluorescent avidin-coated beads (Spherotech) as previously described. HEK293 cells transfected with human J1 or B16F10 cells transfected with mouse J1 were stained with N1 fluorescent beads in the presence of J1 antibody supernatants or purified antibody (murine, chimeric or humanised) diluted in HBBS/10% FCS. Cells were washed and re-suspended in staining buffer before being analysed with a FACSCalibur and data analysis with CellQuest. HEK293 cells transfected with human Jagged 2 and B16F10 cells transfected with human and mouse DLL4 were stained similarly to test blocking specificity.

Row | Blocking of Notch1 binding to cell surface Jagged 1 | Molecule
1 | X | B1
2 | X | B2
3 | X | B3
4 | X | B4
5 | X | B5
6 | X | B6
7 | X | B7
8 | X | B8
9 | X | B9

same assay, conditions: final antibody concentration 0.4 μg/ml

Row | Blocking of Notch1 binding to cell surface Jagged 1 | Molecule
10 | + (Complete blocking) | B1
11 | + (Complete blocking) | B2
12 | + (Complete blocking) | B3
13 | + (Complete blocking) | B4
14 | + (Complete blocking) | B5
15 | + (Complete blocking) | B6
16 | + (Complete blocking) | B7
17 | + (Complete blocking) | B8
18 | + (Complete blocking) | B9

same assay, conditions: final antibody concentration 0.6 μg/ml

Row | Blocking of Notch1 binding to cell surface Jagged 1 | Molecule
19 | + (Complete blocking) | B1
20 | + (Complete blocking) | B2
21 | + (Complete blocking) | B3
22 | + (Complete blocking) | B4
23 | + (Complete blocking) | B5
24 | + (Complete blocking) | B6
25 | + (Complete blocking) | B7
26 | + (Complete blocking) | B8
27 | + (Complete blocking) | B9

same assay, conditions: final antibody concentration 1.0 μg/ml

Row | Blocking of Notch1 binding to cell surface Jagged 1 | Molecule
28 | X | B10
29 | X | B11
30 | X | B12
31 | + (Complete blocking) | B1
32 | + (Complete blocking) | B2
33 | + (Complete blocking) | B3
34 | + (Complete blocking) | B4
35 | + (Complete blocking) | B5
36 | + (Complete blocking) | B6
37 | + (Complete blocking) | B7
38 | + (Complete blocking) | B8
39 | + (Complete blocking) | B9

same assay, conditions: final antibody concentration 2.0 μg/ml

Row | Blocking of Notch1 binding to cell surface Jagged 1 | Molecule
40 | Partial | B13
41 | Partial | B10
42 | Partial | B11
43 | Partial | B12

tested on: not listed separately; test: Soluble aggregates of transiently expressed antibodies; assay type: physicochemical; conditions: Protein A purified antibody
Text: The protein yield of these antibodies, their levels of soluble aggregates and their binding affinity to the immunogen (J1-DE3) are illustrated in (Table 6).

Row | Molecule | % soluble aggregate
44 | B13 | 2.82%
45 | B10 | 5.60%
46 | B11 | 6.61%
47 | B12 | 5.29%
48 | B1 | 1.41%
49 | B2 | 3.58%
50 | B3 | 0%
51 | B4 | 0%
52 | B5 | 0%
53 | B6 | 0%
54 | B7 | 1.67%
55 | B8 | 1.00%
56 | B9 | 0.59%
